# Reference: patent publication US20230374114A1 (Dana-Farber, published 2023)
# Where a chain is given by its changes, count along the chain named.
# B1: Ab 14 IgG (antibody, V domains shown)
# VH: QVQLQQSGPGLVKPSQTLSLTCAISGDSVSSNSAAWNWIRQSPARGLEWLGRTYYRSRWYNDYAISMKSRITINPDTSKNQFSLQLESVTPEDTAVYYCAREIRGFDYWGQGTLVTVSS
# VL: QSVLTQPPSASGSPGQSVTISCTGTSSDVGAYNFVSWYQHHPGKAPKLIIYDFNKRPSGVPDRFSGSKSGNTASLTVSGLQADDEADYYCSSYAGSNNFDVVFGGGTKLTVL
# B2: RBD-R3-E1-A5 Ab (Ab_30) (scFv, V domains shown)
# VH: QVQLVQSGGGVVQPGKSLRLSCTASGFTFSDFPIHWVRQAPGKGLEWVGVISYDGNIKYYGDSVKGRFTISRDNAKNSLYLQMNSLRVEDTAVYYCARGGSSFDIWGQGTTVTVSS
# VL: SYELTQPPSVSEAPRQRVTISCSGSTSNIGNNAVSWYQHLPGKAPKLLIYYNERLPSGVSDRFSGSKSGTSASLAISGLRSEDEADYYCAAWDDSLSGHVVFGGGTKLTVL
# B3: S1-RBD-R3-T1-C7 Ab (Ab 29) (scFv, V domains shown)
# VH: QVQLQQSGPGLVKPSQTLSLTCAISGDSVSSYSDAWNWIRQSPSRGLEWLGRTYYRSKWYNDYAVSVKSRITINPDTSKNQFSLQLSSVTPEDTAVYYCAREIVATTPFRNYYYGMDVWGQGTTVTVSS
# VL: NFMLTQPHSVSESPGNTVTISCTRTSGSIASNYVQWYQQRPGSSPTTVIFQDKLRPSGVPDRFSGSIDSSSNSASLTISGLKTEDEADYYCQSYDSSSLWVFGGGTKLTVL
# B4: S1-RBD-R3-T1-D7 Ab (Ab_34) (scFv, V domains shown)
# VH: QVQLVQSGVEVKKPGESLKISCKGSGYSFTSYWIGWVRQMPGKGLEWMGIIYPGDSDTRYSPSFQGQVTISADKSISTAYLQWSSLKASDTAMYYCARTTYSYGSFDYWGQGTLVTVSS
# VL: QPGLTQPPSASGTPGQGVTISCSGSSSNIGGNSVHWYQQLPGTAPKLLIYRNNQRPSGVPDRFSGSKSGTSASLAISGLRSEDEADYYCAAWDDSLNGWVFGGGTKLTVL
# B5: Ab 27 (scFv, V domains shown)
# VH: QVQLVQSGTEVKKPGASVKVSCKASGYSFTGSHLHWVRQAPGQGLEWMGWINPDSGVINYAQKFQGRVTLTRDTSISTAYMELSGLRSDDTAVYYCARDKAIGYVWALDYWGQGTLVTVSS
# VL: QSALTQPPSVSGSPGQSVTISCTGTSSDVGTYNRVSWYQQPPGKAPKLMIYEVSNRPSGVSNRFSGSKSGNTASLTISGLQAEDEADYYCSSYTRTFTYVFGTGTKVTVL
# B6: S1-R3-T1-H7 (Ab12) (scFv, V domains shown)
# VH: EVQLVESGPGVVSPSATLFLTCSVSGGSIRTHSWNWIRQPPGKPLEWIGFIHHSGATNKNPSLKSRVTISSDTSKNEFSLTLTSVTAADTAVYYCARGPGILSYWSRGTLVTVSS
# VL: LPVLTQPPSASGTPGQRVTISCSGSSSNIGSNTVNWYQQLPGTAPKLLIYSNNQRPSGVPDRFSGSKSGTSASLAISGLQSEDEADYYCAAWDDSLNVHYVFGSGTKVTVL
# B7: S1-R3-T1-C4 (Ab_8) (scFv, V domains shown)
# VH: QVQLVQSGAEVKKPGSSVKVSCKASGGTFSSYAISWLRQAPGQGLEWMGWINPNSGGTNYAQKFQGRVTMTRDTSISTAYMELSRLRSDDTAVYYCARGSGGYYLGWGQGTLVTVSS
# VL: QPGLTQPPSVSKGLRQTATLTCTGNSNNVGNQGAAWLQQHQGHPPKLLSYMNNNRPPGISERFSASRSGNTASLTITGLQPEDEADYYCSAWDSSLSRWVFGGGTKLSVL
# B8: Ab 25 (scFv, V domains shown)
# VH: QVQLVQSGGGLVQPGGSLRLSCAASGFTFSSYWMSWVRQAPGKGLEWVANIKQDGSEKYYVDSVKGRFTISRDNAKNSLYLQMNSLRAEDTAVYYCARGFYYYGAFDIWGQGTTVTVSS
# VL: NFMLTQPHSVSESPGKTVTISCTGSSGSIASNYVQWYQQRPGSAPTTVIYEDNQRPSGVPDRFSGSIGSSSNSASLTISGLKTEDEADYYCQSYDSSNHWVFGGGTKLTVL
# B9: S1-RBD-R3-T1-B12 Ab (Ab_31) (scFv, V domains shown)
# VH: QVQLVQSGAEVKKPGSSVKVSCKASGGTFSSYTISWVRQAPGQGLEWMGGIIPILGTPNYAQKFQDRVAITADKSTSTAYMELSSLRSEDTAVYYCAVGSGWYSGFDYWGQGTLVTVSS
# VL: B8 VL with N53S, G68D, Y94F, D95H, S96N, H99P, W100V, V101I
# B10: Ab 28 (scFv, V domains shown)
# VH: QVTLKESGPGLVNPSETLSLTCTVSGASISNSFWSWIRQSPGKGLEWIGYTSYSGNSIYNPSLKSRLTMSIDTSKNQLSLNLRSLTAADTAVYYCARREWIKGHFDYWGQGTLVTVSS
# VL: B8 VL with S26G, G68D, H99P, W100V
# B11: S1-RBD-R3-T1-F5 (Ab2-7) (scFv, V domains shown)
# VH: QVTLKESGPTRVKPTQTLTLTCTFSGFSLSTTGVGVGWIRQPPGKALEWLALIYWNDDKRYSPSLKSRLTITKDTSKNQVVLTMTNMDPVDTATYYCARISGSGYFYPFDIWGQGTTVTVSS
# VL: B8 VL with G24R, A44S, G68D, T83A, N98S, H99L
# B12: RBD-R3-E1-G7 (Ab2-10) (scFv, V domains shown)
# VH: EVQLVESGPGLVKPSETLSLTCTVSGGSISSYYWSWIRQPAGKGLEWIGRIYTSGSTNYNPSLKSRVTMSVDTSKNQFSLKLSSVTAADTAVYYCARDVGFGWFDRWGQGTLVTVSS
# VL: B8 VL with G24R, A44S, G68D, K82T, Y94F, S97A, N98S, H99L
# B13: Ab_13 (scFv, V domains shown)
# VH: B11 VH with T10K, R11L, T32S, N56D, T72A, N78Y, T117M, S122A
# VL: B8 VL with G24R, G68D, H99L
# B14: Ab 26 (scFv, V domains shown)
# VH: QVQLVQSGGGLVQPGRSLRLSCAASGFTFDDYAMHWVRQVPGKGLEWVSGIDWNSGVIGYADSVKGRFTISRDNAKNSLYLQMNSLRAEDTALYYCAKDAYSYGFLGAFDIWGQGTMVTVSS
# VL: LPVLTQPPSVSVAPGQTASITCGGDNIRTKGVHWYQQKPGQAPLLVIYYASDRPSGIPERFSGSSSGNTATLTISRVEAGDEADYYCQVWDSSSDLVVFGGGTTLTVL
# B15: S1-RBD-R3-T1-E2 (Ab7) (scFv, V domains shown)
# VH: B14 VH
# VL: QPGLTQPPSVSVAPGQTARISCGGNNIGSKSVHWYQQKPGRAPVLVVYEDRGRPSGIPERFSGSNSGNTATLTVSRVEAGDEADYYCQVWDGDSDHYVFATGTKVSIL
# B16: RBD-R3-T1-H3 (Ab_2) (scFv, V domains shown)
# VH: EVQLVQSGAEVKKPGSSVKVSCKTSGYTFTTSGISWVRQAPGQGLEWMGWISAYNGNTNYAQKLQGRVTMTTDTSTSTAYMELRSLRSDDTAVYYCARDFHLYYGMDVWGKGTLVTVSS
# VL: QSALTQPPSASGSPGQSVTISCTGTSSDVGAYNYVSWYQQHPGKAPKLLIYDVTKRPPGVPDRFSGSKSGNTASLTVSGLQAEDEADYYCAVWDDGLNGRVVFGGGTKLTVL
# B17: RBD-R3-E1-B3 Ab (Ab_32) (scFv, V domains shown)
# VH: QVQLVQSGAEVKKPGESLKISCKGSGYSFTSYWIGWVRQMPGKGLEWMGIIYPGDSDTRYSPSFQGQVTISADKSISTAYLQWSSLKASDTAMYYCARGWQWHDYWGQGTLVTVSS
# VL: QTVVTQEPAVSVALGQTVRITCQGDSLRSYYASWYQQKPGQAPVLVVYDKDKRPSGIPDRFSGSTSGNTASLTITGAQAEDEADYYCNSRDRSDNHVVFGGGTKLTVL
# B18: RBD-R3-E1-F5 Ab (Ab_36) (scFv, V domains shown)
# VH: QVQLQQSGPGLVKPSQTLSLTCAIFGDSVTSNSAAWNWIRQSPSRGLEWLGRTYYSSKWYNDYAVSVKSRVTINADTSKNQLSLQLNSVTPEDTAVYYCARGWLRLSFDPWGQGTLVTVSS
# VL: NFMLTQPHSVSESPGKTVTISCTGSSGSIASNYVQWLQQRLGSAPTTVIYEDNQRPSGVPDRFSGSIDSSSNSASLTISGLKTEDEADYYCQSYDPNNHGVVFGGGTKLTVL
# B19: S1-RBD-R3-E1-E8 Ab (Ab 37) (scFv, V domains shown)
# VH: QVQLVQSGAEVKKPGASVKVSCKASGYTFTSYGISWVRQAPGQGLEWMGWISTYNGNTNYAQKLQGRVTMTTDTSTSTAYMEVRSLRSDDTAVYYCARDVFGHFDYWGQGTLVTVSS
# VL: NFMLTQPHSVSESPGKTVLISCTRSSGNIATNYVQWYQQRPGSAPTTVIYEDNQRPSGVPDRFSGSIDSSSNSASLTISGLKTEDEADYYCKSYDDGNHVFGGGTKLTVL
# B20: Ab 38 (scFv, V domains shown)
# VH: QVTLKESGPTLVKPTQTLTLTCTFSGFSLTTSGVSVGWIRQPPGKALEWLALIHWDDDKRYSPSLRSRLTITRDTSKNQVVLTVTDMDPADTGTYYCASFIMTVYAEYFEDWGQGTLVTVSS
# VL: EIVLTQSPATLSVSPGERATLSCRASQSVSSNLAWYQQKPGQAPRLLMYDVSTRATGIPARFSGSGSGTEFSLTISSLQSEDFAVYYCQQRGAWPLTFGGGTKVEIK
# B21: S1-RBD-R3-T1-F9 Ab (Ab_39) (scFv, V domains shown)
# VH: QVTLKESGPTLVKPTQTLTLTCTLSGVSLDTIGMRVSWIRQPPGKALEWLARIDWDDDKFYSTALKTRLTISKDTSKNQVVFTMTSMDPVDTATYYCARSGLLYDLDVWGRGTLVTVSS
# VL: QSVVTQPPSVSGAPGQRVTISCTGSDSDIGANFVQWYQQLPGTAPKLLIWRNTNRPSGVPDRFSASKSGTSASLAITGLQAEDEADYFCQSYDSSLSAYVFGGGTKVTVL
# B22: S1-RBD-R3-T1-G1 Ab (Ab_35) (scFv, V domains shown)
# VH: EVQLVQSGAEVKKPGESLRISCKASGYSFTSNWIGWVRQMPGKGLEWMGSIFPGDSDTKYSPSFQGQVTISADRSISTAYLQWSGLKASDTAMYYCARESYNAYGSWGQGTLVTVSS
# VL: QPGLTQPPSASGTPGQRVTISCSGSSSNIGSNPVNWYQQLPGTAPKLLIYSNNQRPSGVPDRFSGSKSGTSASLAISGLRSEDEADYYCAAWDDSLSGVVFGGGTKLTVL
# Molecular target: spike protein on live SARS-CoV-2 (isolate USA-WA1/2020) (SARS-CoV2, UniProt P0DTC2 14-1273)
# Experiment: cell-based or functional assay
row,Binder,shift of the neutralization IC50 of the IgG against the scFv-Fc
1,B1,40 fold

# Molecular target: WT Spike (SARS-CoV-2, UniProt P0DTC2 16-1213)
# Experiment: not given
row,Binder,Kd
1,B2,1.02 pM
2,B3,149 pM
3,B4,6.58 pM
4,B5,8.78 pM
5,B6,8.31 pM
6,B7,7.15 pM
7,B8,8.9 pM
8,B9,< 1 pM
9,B10,8.9 pM
10,B11,7.85 pM
11,B12,5.65 pM
12,B13,8.55 pM
13,B14,11 pM
14,B15,7 pM
15,B16,199 pM
16,B17,6.32 pM

# Molecular target: WT Spike (SARS-CoV2, UniProt P0DTC2 16-1213)
# Experiment: not given
row,Binder,Kd
1,B18,9.01 pM
2,B19,9 pM
3,B20,7.86 pM
4,B21,2.04 pM
5,B22,8.9 pM
